Experimental data taken from publication PMC8549118 (Nature structural & molecular biology, 2021).
Non-standard residues stand in square brackets, D forms with d. No end group written: not given here. pT = C[C@@H](OP(=O)(O)O)[C@H](N)C(=O)O; pS = N[C@@H](COP(=O)(O)O)C(=O)O

Target: T1, VSP-C363S (voltage-sensing phosphatase, aa 241-576) (C. intestinalis, UniProt Q4W8A1 241-576, C363S)
T1 sequence (looked up): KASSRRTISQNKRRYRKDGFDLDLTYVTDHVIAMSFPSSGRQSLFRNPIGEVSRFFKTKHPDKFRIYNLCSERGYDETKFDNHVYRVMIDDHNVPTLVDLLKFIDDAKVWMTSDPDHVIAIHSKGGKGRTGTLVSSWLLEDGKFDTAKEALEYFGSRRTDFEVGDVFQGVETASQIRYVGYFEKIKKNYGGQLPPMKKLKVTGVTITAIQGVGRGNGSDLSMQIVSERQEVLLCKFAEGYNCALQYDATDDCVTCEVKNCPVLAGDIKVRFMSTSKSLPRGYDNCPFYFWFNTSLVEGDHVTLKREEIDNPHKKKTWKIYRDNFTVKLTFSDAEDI
Assay: fluorescence polarisation

binding result: binds
B1: 4p-T2, tetraphosphorylated PTEN C-tail peptide (15 aa) (peptide)
peptide: CRY[pS]D[pT][pT]D[pS]DPENEG
